The record followed here is patent US20210317213A1 (AMBRX, published 2021).

Assay [1] deals with T1, human CD3 (human, UniProt P07766 23-207).
T1 construct: whole, on cells; also called CD3 on human T-cells
Briefly: cell binding, human T-cells. Set-up: Bmax: unit not given here.

Assay [2] concerns the target Folate receptor-alpha (FOLR1) (human) (UniProt P15328). Put plainly: cell binding, FOLRα-expressing KB cells; through the folate moiety.
Assay [3] shares this target. Put plainly: summary table; FRα affinity over CD3 affinity.
Assay [4] has as its target T1, human CD3. Put plainly: cell binding, activated human PBMC.
Assay [5] deals with T2, cyno CD3 (cyno (cynomolgus monkey), UniProt Q95LI5 22-198).
T2 construct: whole, on cells; also called CD3 on Cynomolgus T-cells
T2 sequence (Q95LI5 22-198): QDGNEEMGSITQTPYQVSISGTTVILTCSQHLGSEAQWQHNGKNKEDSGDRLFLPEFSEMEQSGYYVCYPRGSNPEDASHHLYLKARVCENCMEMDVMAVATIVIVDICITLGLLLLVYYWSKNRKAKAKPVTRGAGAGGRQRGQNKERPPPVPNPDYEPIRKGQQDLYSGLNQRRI
Put plainly: cell binding, cynomolgus T-cells.

Assay [6] has as its target Folate receptor-alpha (FOLR1) (human) (UniProt P15328). Put plainly: summary table; cell binding through the folate moiety.
For assay [7], the target named is T1, human CD3. Put plainly: cell binding, human CD3, 50 nM SFA present.
Assay [8] deals with T1, human CD3. Briefly: summary table; cell binding EC50, human PBMC.
For assay [9], the target named is T2, cyno CD3. Put plainly: cell binding, activated cyno PBMC.
The target of assay [10] is T2, cyno CD3. Put plainly: cell binding, cyno CD3 (activated cyno PBMC); cyno CD3 (second number of the cell). The method, then: (§1) Testing for CD3 binding with activated human and cyno PBMC: To distinguish between the humanized anti-CD3 antibodies generated, binding to human CD3 was tested using activated human PBMCs (n=2). The activation of PBMCs and subsequent fluorescence-based CD3 binding assays were followed as described previously (see for example, Angew Chem Int Ed Engl, 52(46):12101-12104, 2013). […] The binding of the remaining 6 humanized antibodies to both human and cyno CD3 using activated human and cyno PBMCs, respectively, was titrated. […] The six (6) humanized anti-CD3 antibodies were obtained as follows: Fab1, Fab2 and Fab3 wildtype were generated by combination of LC ((vL1.2+CL); (SEQ.ID. NO:7)) and HC ((vH1.2+CH1); (SEQ.ID. NO:1)), ((vH1.1+CH1); (SEQ.ID. NO:2)) and ((vH1.0+CH1); (SEQ.ID. NO:3)) respectively. Fab4, Fab 5 and Fab6 wildtype were generated by combination of LC ((vL1.1+CL); (SEQ.ID. NO:8)) and HC ((vH1.2+CH1); (SEQ.ID. NO:1)), ((vH1.1+CH1); (SEQ.ID. NO:2)) and ((vH1.0+CH1); (SEQ.ID. NO:3)) respectively.
(§2) Binding of Folate-conjugated Fabs to human and cyno CD3: Binding of E. coli produced and Folate-conjugated low-affinity variants of humanized anti-CD3 Fabs was performed as described in the above Examples.

The target in assay [11] is T1, human CD3. Put plainly: cell binding, human CD3 (activated human PBMC); human CD3 (first number of the cell). The method, then: as §1, §2
Assay [12] has as its target T1, human CD3. Put plainly: cell binding, activated human PBMC; E. coli protein.
Assay [13] deals with T2, cyno CD3. Put plainly: cell binding, activated cyno PBMC; E. coli protein.

T1 sequence (P07766 23-207): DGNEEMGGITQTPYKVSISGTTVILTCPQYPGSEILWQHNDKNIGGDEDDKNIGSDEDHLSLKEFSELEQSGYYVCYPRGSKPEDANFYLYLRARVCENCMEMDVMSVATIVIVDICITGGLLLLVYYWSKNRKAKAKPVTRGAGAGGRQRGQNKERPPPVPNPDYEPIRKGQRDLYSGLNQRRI
Chain of Folate receptor-alpha (FOLR1) (human) (P15328 25-234): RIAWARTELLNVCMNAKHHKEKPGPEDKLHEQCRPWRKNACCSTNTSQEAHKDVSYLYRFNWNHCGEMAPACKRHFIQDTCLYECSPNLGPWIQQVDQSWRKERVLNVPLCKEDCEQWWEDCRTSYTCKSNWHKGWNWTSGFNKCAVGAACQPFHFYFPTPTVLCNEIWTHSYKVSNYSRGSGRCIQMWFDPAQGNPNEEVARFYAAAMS

B1: Fab1-HK129-5KPEG-Folate (Fab, V domains shown)
VH: EVQLVESGGGLVQPGGSLRLSCAASGFTFNTYAMNWVRQAPGKGLEWVARIRSKYNNYATYYADSVKDRFTISRDDSKNILYLQMNSLKTEDTAVYYCVRHGNFGNSYVSWFAYWGQGTLVTVSS
VL: QAVVTQEPSLTVSPGGTVTLTCRSSTGAVTTSNYANWVQQKPGQAPRGLIGGTNKRAPGTPARFSGSLLGGKAALTLSGAQPEDEAEYYCALWYSNLWVFGGGTKLTVLG
modifications: pAF at HK129 (Kabat) conjugated to a bifunctional linker carrying folate and a linear 5K PEG (oxime)
notes: From E. coli; also called Fab1-5KPEG-Folate
Turning to B1, the Bmax amounted to 23400 in the assay with human CD3 [1], 134000 in [2] and 19900 in the assay with cyno CD3 [5]. Moreover, the Kd was found to be 2.34 nM in the assay with human CD3 [1], 3.69 nM in assay [2] and 3.31 nM with cyno CD3 [5]. Besides, the Affinity ratio (FRα:CD3) in [3] is 26. The half-maximal effective concentration (EC50) in the assay with human CD3 [4] stood at 5 nM; in the assay with human CD3 [7], 5.27 nM; with cyno CD3 [9] it was 2.46 nM. Moreover, the figures for the “Fold reduction in binding (vs Fab1-HK129-Folate)” value (“Fold reduction in binding” below) with human CD3 [4] and in the assay with cyno CD3 [9] were 1.9 fold and 1.7 fold, respectively. The FRα binding affinity in [6] turned out to be 129 nM. Further, in the assay with human CD3 [8], the CD3 binding affinity came to 5 nM.

B2: Fab8-HK129-Folate (Fab, V domains shown)
VH: EVQLVESGGGLVQPGGSLRLSCAASGFTFNTYAMNWVRQAPGKGLEWVGRIRSKYNNYATYYADSVKDRFTISRDDSKNILYLQMNSLKTEDTAVYYCVRHGNFGNSYVSWFAYWGQGTLVTVSS
VL: QAVVTQEPSLTVSPGGTVTLTCRSSTGAVTTSNYANWFQQKPGQAPRGLIGGTNKRAPGVPARFSGSLLGGKAALTLSGAQPEDEAEYYCALWYSNLWVFGGGTKLTVLG
modifications: pAF at HK129 (Kabat) conjugated to folate (oxime)
notes: also called Fab8 (E. coli, folate-conjugated)
With B2, the half-maximal effective concentration (EC50) with cyno CD3 [10] turned out to be 130 nM; in the assay with human CD3 [11], 78.3 nM.

B3: Fab1-HK129-20KPEG-Folate (Fab, V domains shown)
VH: EVQLVESGGGLVQPGGSLRLSCAASGFTFNTYAMNWVRQAPGKGLEWVARIRSKYNNYATYYADSVKDRFTISRDDSKNILYLQMNSLKTEDTAVYYCVRHGNFGNSYVSWFAYWGQGTLVTVSS
VL: QAVVTQEPSLTVSPGGTVTLTCRSSTGAVTTSNYANWVQQKPGQAPRGLIGGTNKRAPGTPARFSGSLLGGKAALTLSGAQPEDEAEYYCALWYSNLWVFGGGTKLTVLG
modifications: pAF at HK129 (Kabat) conjugated to a bifunctional linker carrying folate and a linear 20K PEG (oxime)
notes: From E. coli
Take B3: in [3], the Affinity ratio (FRα:CD3) worked out at 26. In the assay with human CD3 [4], the EC50 amounted to 12 nM and the “Fold reduction in binding” value came out at 4.3 fold. Besides, the FRα binding affinity in [6] was determined as 310 nM. Further, the CD3 binding affinity with human CD3 [8] is 12 nM. In the assay with cyno CD3 [9], the EC50 is 11.8 nM and the “Fold reduction in binding” value is 8.4 fold.

B4: Fab1-HK129-pAF (Fab, V domains shown)
VH: EVQLVESGGGLVQPGGSLRLSCAASGFTFNTYAMNWVRQAPGKGLEWVARIRSKYNNYATYYADSVKDRFTISRDDSKNILYLQMNSLKTEDTAVYYCVRHGNFGNSYVSWFAYWGQGTLVTVSS
VL: QAVVTQEPSLTVSPGGTVTLTCRSSTGAVTTSNYANWVQQKPGQAPRGLIGGTNKRAPGTPARFSGSLLGGKAALTLSGAQPEDEAEYYCALWYSNLWVFGGGTKLTVLG
modifications: para-acetyl-phenylalanine (pAF) at HK129 (Kabat)
notes: From E. coli; carries no folate and no PEG; also called Fab1-HK129-pAF1; anti-CD3 Fab1-HK129-pAF control
Regarding B4, the figures for the Bmax with human CD3 [1] and in the assay with cyno CD3 [5] were 32000 and 26600, respectively. The figures for the Kd with human CD3 [1] and with cyno CD3 [5] were 1.59 nM and 2.67 nM, respectively. The EC50 with human CD3 [12] turned out to be 1.14 nM; with human CD3 [7], 1.92 nM; in the assay with cyno CD3 [13], 1.15 nM.

B5: Fab1-HS115-Folate (Fab, V domains shown)
VH: EVQLVESGGGLVQPGGSLRLSCAASGFTFNTYAMNWVRQAPGKGLEWVARIRSKYNNYATYYADSVKDRFTISRDDSKNILYLQMNSLKTEDTAVYYCVRHGNFGNSYVSWFAYWGQGTLVTVSS
VL: QAVVTQEPSLTVSPGGTVTLTCRSSTGAVTTSNYANWVQQKPGQAPRGLIGGTNKRAPGTPARFSGSLLGGKAALTLSGAQPEDEAEYYCALWYSNLWVFGGGTKLTVLG
modifications: pAF at HS115 (Kabat) conjugated to folate (oxime)
notes: From E. coli; Fab-folate conjugate
Consider B5, for which the 50% effective concentration (EC50) with human CD3 [12] came to 1.41 nM; with cyno CD3 [13], 1.37 nM.

B6: Fab1-HS115-pAF1 (Fab, V domains shown)
VH: EVQLVESGGGLVQPGGSLRLSCAASGFTFNTYAMNWVRQAPGKGLEWVARIRSKYNNYATYYADSVKDRFTISRDDSKNILYLQMNSLKTEDTAVYYCVRHGNFGNSYVSWFAYWGQGTLVTVSS
VL: QAVVTQEPSLTVSPGGTVTLTCRSSTGAVTTSNYANWVQQKPGQAPRGLIGGTNKRAPGTPARFSGSLLGGKAALTLSGAQPEDEAEYYCALWYSNLWVFGGGTKLTVLG
modifications: para-acetyl-phenylalanine (pAF) at HS115 (Kabat)
notes: From E. coli; also called Fab1 HS115pAF, unconjugated
In the case of B6, the half-maximal effective concentration (EC50) in the assay with human CD3 [12] is 1.26 nM; in the assay with cyno CD3 [13] it was 1.76 nM.

B7: Fab1-HA114-Folate (Fab, V domains shown)
VH: EVQLVESGGGLVQPGGSLRLSCAASGFTFNTYAMNWVRQAPGKGLEWVARIRSKYNNYATYYADSVKDRFTISRDDSKNILYLQMNSLKTEDTAVYYCVRHGNFGNSYVSWFAYWGQGTLVTVSS
VL: QAVVTQEPSLTVSPGGTVTLTCRSSTGAVTTSNYANWVQQKPGQAPRGLIGGTNKRAPGTPARFSGSLLGGKAALTLSGAQPEDEAEYYCALWYSNLWVFGGGTKLTVLG
modifications: pAF at HA114 (Kabat) conjugated to folate (oxime)
notes: as for B5
As to B7, the half-maximal effective concentration (EC50) in the assay with human CD3 [12] came to 1.27 nM; with cyno CD3 [13], 1.37 nM.

B8: Fab1-HA114-pAF1 (Fab, V domains shown)
VH: EVQLVESGGGLVQPGGSLRLSCAASGFTFNTYAMNWVRQAPGKGLEWVARIRSKYNNYATYYADSVKDRFTISRDDSKNILYLQMNSLKTEDTAVYYCVRHGNFGNSYVSWFAYWGQGTLVTVSS
VL: QAVVTQEPSLTVSPGGTVTLTCRSSTGAVTTSNYANWVQQKPGQAPRGLIGGTNKRAPGTPARFSGSLLGGKAALTLSGAQPEDEAEYYCALWYSNLWVFGGGTKLTVLG
modifications: para-acetyl-phenylalanine (pAF) at HA114 (Kabat)
notes: From E. coli; also called Fab1 HA114pAF, unconjugated
Consider B8, for which the EC50 in the assay with human CD3 [12] is 1.35 nM; with cyno CD3 [13], 1.33 nM.

B9: Fab9-HK129-Folate (Fab, V domains shown)
VH: EVQLVESGGGLVQPGGSLRLSCAASGFTFNTYAMNWVRQAPGKGLEWVGRIRSKYNNYATYYADSVKDRFTISRDDSKNSLYLQMNSLKTEDTAVYYCVRHGNFGNSYVSWFAYWGQGTLVTVSS
VL: QAVVTQEPSLTVSPGGTVTLTCRSSTGAVTTSNYANWFQQKPGQAPRGLIGGTNKRAPGVPARFSGSLLGGKAALTLSGAQPEDEAEYYCALWYSNLWVFGGGTKLTVLG
modifications: pAF at HK129 (Kabat) conjugated to folate (oxime)
notes: also called Fab9 (E. coli, folate-conjugated)
Turning to B9, the EC50 with cyno CD3 [10] came out at 93.1 nM; with human CD3 [11] it was 69.1 nM.

B10: Fab1-HK129-LL157-pAF (Fab, V domains shown)
VH: EVQLVESGGGLVQPGGSLRLSCAASGFTFNTYAMNWVRQAPGKGLEWVARIRSKYNNYATYYADSVKDRFTISRDDSKNILYLQMNSLKTEDTAVYYCVRHGNFGNSYVSWFAYWGQGTLVTVSS
VL: QAVVTQEPSLTVSPGGTVTLTCRSSTGAVTTSNYANWVQQKPGQAPRGLIGGTNKRAPGTPARFSGSLLGGKAALTLSGAQPEDEAEYYCALWYSNLWVFGGGTKLTVLG
modifications: pAF at LL157 (Kabat); pAF at HK129 (Kabat)
notes: From E. coli; double pAF variant, unconjugated; also called Fab1-HK129pAF-LL157pAF
Consider B10, for which the Bmax in the assay with human CD3 [1] was 27900; with cyno CD3 [5] it was 23400. The Kd with human CD3 [1] is 0.604 nM; with cyno CD3 [5], 0.955 nM.

B11: Fab10-HK129-Folate (Fab, V domains shown)
VH: EVQLVESGGGLVQPGGSLRLSCAASGFTFSTYAMNWVRQAPGKGLEWVARIRSKYNNYATYYADSVKDRFTISRDDSKNILYLQMNSLKTEDTAVYYCVRHGNFGNSYVSWFAYWGQGTLVTVSS
VL: QAVVTQEPSLTVSPGGTVTLTCRSSTGAVTTSNYANWFQQKPGQAPRGLIGGTNKRAPGVPARFSGSLLGGKAALTLSGAQPEDEAEYYCALWYSNLWVFGGGTKLTVLG
modifications: pAF at HK129 (Kabat) conjugated to folate (oxime)
notes: also called Fab10 (E. coli, folate-conjugated)
B11: the EC50 came to 99.5 nM in the assay with cyno CD3 [10] and 83.6 nM in the assay with human CD3 [11].

B12: Fab7-HK129-Folate (Fab, V domains shown)
VH: EVQLVESGGGLVQPGGSLRLSCAASGFTFNTYAMNWVRQAPGKGLEWVARIRSKYNNYATYYADSVKDRFTISRDDSKNILYLQMNSLKTEDTAVYYCARHGNFGNSYVSWFAYWGQGTLVTVSS
VL: QAVVTQEPSLTVSPGGTVTLTCRSSTGAVTTSNYANWVQQKPGQAPRGLIGGTNKRAPWVPARFSGSLLGGKAALTLSGAQPEDEAEYYCALWYSNLWVFGGGTKLTVLG
modifications: pAF at HK129 (Kabat) conjugated to folate (oxime)
notes: also called Fab7 (E. coli, folate-conjugated)
For the molecule B12, the concentration giving a half-maximal response (EC50) with cyno CD3 [10] turned out to be 20.2 nM; in the assay with human CD3 [11] it was 23.4 nM.
